Assay results: patent CN112851810A (BEIJING GUANGWEI BIOTECHNOLOGY CO LTD, dated 2021)

Target: T1, 人CD20 (human CD20) (human, UniProt P11836 1-297, limits assumed)
T1 construct: also called 人CD20蛋白; 抗原
T1 sequence (looked up): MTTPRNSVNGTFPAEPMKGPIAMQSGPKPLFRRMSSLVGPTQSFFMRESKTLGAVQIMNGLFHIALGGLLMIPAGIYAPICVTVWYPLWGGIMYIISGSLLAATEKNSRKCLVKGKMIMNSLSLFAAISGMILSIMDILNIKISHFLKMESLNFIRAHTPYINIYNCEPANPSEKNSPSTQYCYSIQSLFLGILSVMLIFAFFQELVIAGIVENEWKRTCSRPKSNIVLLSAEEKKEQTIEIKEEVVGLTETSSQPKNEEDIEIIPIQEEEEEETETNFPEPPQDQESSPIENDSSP
Assay: SPR (CM5 chip, antibody captured by anti-human capture antibody, antigen as analyte from 10 nM)

Binder	Kd [nM]	koff [s⁻¹]	kon [M⁻¹ s⁻¹]
h12H7-IgG1 (antibody, V domains shown) VH: QVQLVQSGAEVKKPGASVKVSCKASDYTFTSYAGKWVRQAPGQGLEWIGAIPTKGNDTSYNQFLKGRVTMTADTSTSTVYMELSSLRSEDTAVYYCAKGIDGCNFDYWGQGTTVTVSS VL: DIQMTQSPSSVSASVGDRVTITCKASQRVATGVAWYQQKPGKAPKALIYSAIGNRTGVPSRFSGSGSGTDFTLTISSLQPEDFATYYCQQASKIDAYPTFGQGTKLEIK	0.307	4.21e-05	137000
Rituximab (antibody, V domains shown) VH: QVQLQQPGAELVKPGASVKMSCKASGYTFTSYNMHWVKQTPGRGLEWIGAIYPGNGDTSYNQKFKGKATLTADKSSSTAYMQLSSLTSEDSAVYYCARSTYYGGDWYFNVWGAGTTVTVSA VL: QIVLSQSPAILSASPGEKVTMTCRASSSVSYIHWFQQKPGSSPKPWIYATSNLASGVPVRFSGSGSGTSYSLTISRVEAEDAATYYCQQWTSNPPTFGGGTKLEIK	5.46	0.000345	63100
